For this data set, the system named is T1, C=C(OP(=O)(O)O)C(=O)O.
T1 construct: full length, 622 residues, N-terminal His6-SUMO tag cleaved off with no additional amino acids; codon-optimised gene in pESUMO-Star; E. coli BL21(DE3); EC 4.1.1.32
The experiment in a line: purified protein. It counts as biochemical, Polaromonas naphthalenivorans. To be noted: 25 °C, pH 7.5, 1 mM GDP, 50 mM KHCO3, 4 mM MgCl2, 100 μM MnCl2, PEP carboxylation direction.

As for “PnPEPCK (Polaromonas naphthalenivorans CJ2)”, the Km turned out to be 2500 ± 650 µM, the catalytic constant (kcat) was 23 ± 1.4 s⁻¹ and the kcat/Km came out at 9200 M⁻¹ s⁻¹.

In general, Km refers to the concentration of substrate that gives half-maximal velocity. By kcat is commonly meant the maximal rate divided by the concentration of active sites. As a reminder, the kcat/Km is the turnover number divided by the Michaelis constant.

(Values after article PMC12529880, “Structural mechanisms for cold‐adapted activity of phosphoenolpyruvate carboxykinase” (Protein Science : A Publication of the Protein Society, 2025).)
